Test results taken from the supplement of paper PMC10126150.
± gives the standard deviation of the averaged measurements.

System: ATP
Experiment: switch fluorescence ratio, 500 uM ATP over buffer (Cy3 cluster intensity, sum of 5 cycles each) (fold (ratio)); higher = stronger signal-on switching upon ATP binding; sequences stand for … in TCGTCGGCAGCGTCAGATGTGTATAAGAGACAGTTTTTTTTTTTTTTTTTTTTTTTTT…TC
Settings: aptamer strand: ATP DNA aptamer (quencher-CACCTGGGGGAGTATTGCGGAGGAAGG + anchor), 100 nM annealed; ATP concentration: 500 uM
Summary of the method: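 Switching-strand clusters labelled with Cy3 on a modified Illumina MiSeq flow-cell were annealed to 100 nM quencher-labelled ATP aptamer, imaged in selection buffer, and re-imaged after 15 min with 500 uM ATP at 22 °C. This was done over five cycles with NaOH stripping and re-annealing in between. The fluorescence ratio is summed target-cycle over summed buffer-cycle Cy3 intensity per cluster, averaged per switch-domain sequence, excluding clusters outside 100-1000 RFU.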
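Further: ATP exposure 15 min at 22 °C before imaging.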

Sequence | switch fluorescence ratio
AACGTTTTTT | 0.991 ± 0.027
AACTAGGTGT | 1.15 ± 0.22
AACTATATCT | 1.05 ± 0.021
AACTATCTTG | 1 ± 0.0027
AACTATGGTC | 1.01 ± 0.036
AACTCAAGGG | 1.0096 ± 0.00058
AACTCGGTCT | 1.03 ± 0.095
AACTCGTAGG | 0.995 ± 0.018
AACTCGTTCT | 1.01 ± 0.011
AACTCTGAGA | 1.03 ± 0.013
AACTGAAGTG | 0.984 ± 0.023
AACTGCGCTG | 1.01 ± 0.035
AACTGGACTC | 1.14 ± 0.013
AACTGGAGGG | 0.969 ± 0.042
AACTGGGACT | 1.02 ± 0.041
AACTGGGGGC | 1 ± 0.031
AACTGGGGGT | 1.02 ± 0.017
AACTGGTCGC | 1.14 ± 0.07
AACTGTTGGG | 0.9928 ± 0.002
AACTTAACGA | 1.0744 ± 0.00011
AACTTATTTG | 1 ± 0.028
AACTTCTATT | 1.016 ± 0.00089
AACTTGGTGT | 0.983 ± 0.016

Sequence | switch fluorescence ratio
AACTTGGTTT | 0.961 ± 0.056
AACTTTAGGT | 0.987 ± 0.023
AACTTTCCGA | 2.36 ± 0.39
AACTTTCCTC | 2.49 ± 0.076
AACTTTGCAG | 1.016 ± 0.0052
AACTTTTTAC | 1.05 ± 0.028
AAGAAAACTT | 1.042 ± 0.0089
AAGAAAGGAA | 0.951 ± 0.029
AAGAAAGGCA | 0.998 ± 0.033
AAGAAAGGGA | 1.03 ± 0.038
AAGAACCCAG | 1.05 ± 0.025
AAGAACTAAA | 1.05 ± 0.081
AAGAACTAGG | 1.03 ± 0.041
AAGAAGCTGA | 0.972 ± 0.019
AAGAAGGACG | 1 ± 0.033
AAGAAGGAGC | 0.974 ± 0.039
AAGAAGTTTG | 0.9879 ± 0.0049
AAGAATCAGA | 0.98 ± 0.015
AAGAATCTCT | 0.968 ± 0.045
AAGACCTTAT | 1.05 ± 0.011
AAGACGTCAC | 1.91 ± 0.14
AAGACGTTTT | 1.014 ± 0.0011
AAGACTCTGG | 0.973 ± 0.044

Sequence | switch fluorescence ratio
AAGAGACGGG | 1.009 ± 0.0018
AAGAGCTTTG | 0.99 ± 0.013
AAGAGGATAG | 0.983 ± 0.043
AAGAGGCTAA | 1 ± 0.036
AAGAGGGGAC | 0.996 ± 0.056
AAGAGTCGTA | 0.969 ± 0.027
AAGAGTGTCG | 0.921 ± 0.056
AAGAGTTAGG | 0.966 ± 0.031
AAGATACCTG | 1.08 ± 0.043
AAGATACGAA | 1.04 ± 0.019
AAGATAGTAC | 1.04 ± 0.024
AAGATAGTGT | 0.9936 ± 0.0057
AAGATATCGA | 1.02 ± 0.014
AAGATGACGC | 1.12 ± 0.13
AAGATGTAGC | 1.006 ± 0.0053
AAGATGTAGG | 1.025 ± 0.0086
AAGATTATTT | 0.989 ± 0.074
AAGATTCATT | 0.99763 ± 0.00055
AAGATTGGGG | 0.977 ± 0.019
AAGATTTTAC | 1.01 ± 0.019
AAGATTTTTT | 1.01 ± 0.016
AAGCAATGGG | 1.45 ± 0.037
AAGCACCCGT | 1.12 ± 0.058

Sequence | switch fluorescence ratio
AAGCAGGTTA | 1.01 ± 0.0062
AAGCATAGGA | 1.02 ± 0.02
AAGCATCATA | 0.988 ± 0.021
AAGCATGTTG | 0.966 ± 0.021
AAGCATTAGT | 1.05 ± 0.04
AAGCATTGTT | 0.999 ± 0.035
AAGCCAGTGG | 1.014 ± 0.0035
AAGCCCGGGA | 1.45 ± 0.67
AAGCCGGGCT | 1.02 ± 0.029
AAGCCGGGTC | 0.991 ± 0.0014
AAGCCGTGCG | 1.02 ± 0.014
AAGCCGTGGC | 0.975 ± 0.11
AAGCGGTGGG | 1.05 ± 0.032
AAGCGGTTAA | 1.011 ± 0.0022
AAGCGTTTTG | 0.988 ± 0.0017
AAGCTAATTC | 1.186 ± 0.0069
AAGCTAGTTT | 1 ± 0.013
AAGCTCAATC | 1.05 ± 0.032
AAGCTCTGTG | 0.95 ± 0.027
AAGCTGAGAT | 1.01 ± 0.024
AAGCTGCATG | 1.01 ± 0.018
AAGCTGGCTG | 0.945 ± 0.029
AAGCTGGCTT | 1.024 ± 0.0056

Sequence | switch fluorescence ratio
AAGCTGGTAC | 1.99 ± 0.1
AAGCTGGTTT | 0.982 ± 0.032
AAGCTTGTTG | 0.992 ± 0.038
AAGCTTTTCA | 1.03 ± 0.041
AAGCTTTTGT | 0.9849 ± 0.0084
AAGGAAACAC | 1.96 ± 1.3
AAGGAAAGGG | 1.21 ± 0.25
AAGGAAGGGT | 1.02 ± 0.041
AAGGAAGTGC | 1.003 ± 0.0086
AAGGAGTGAC | 1.05 ± 0.06
AAGGATAGGA | 1 ± 0.014
AAGGATGCAT | 1.03 ± 0.038
AAGGCAATTA | 1.15 ± 0.033
AAGGCACGCT | 1 ± 0.065
AAGGCCAATA | 1.05 ± 0.033
AAGGCCGTGA | 1.03 ± 0.085
AAGGCGAAAA | 0.976 ± 0.013
AAGGCGAGAC | 1.06 ± 0.023
AAGGCGCGGG | 0.9891 ± 0.0081
AAGGCGCGGT | 1.03 ± 0.011
AAGGCGGGAG | 0.96 ± 0.032
AAGGCGGGCT | 0.98942 ± 7e-05
AAGGCTATGG | 0.988 ± 0.027

Sequence | switch fluorescence ratio
AAGGCTCTTG | 0.986 ± 0.018
AAGGCTGGGG | 0.9781 ± 0.0058
AAGGCTGGGT | 1.02 ± 0.023
AAGGCTTCTT | 1 ± 0.015
AAGGGAAGGC | 1 ± 0.018
AAGGGAATAG | 1.02 ± 0.014
AAGGGACGGG | 1.01 ± 0.027
AAGGGAGGCT | 1.01 ± 0.066
AAGGGATTGT | 1.18 ± 0.26
AAGGGCAGAA | 0.973 ± 0.03
AAGGGCAGTA | 0.998 ± 0.01
AAGGGCGGAT | 1.02 ± 0.021
AAGGGCGGGA | 1.02 ± 0.086
AAGGGCTAGG | 0.999 ± 0.014
AAGGGCTCTG | 1.01 ± 0.046
AAGGGCTGGT | 0.99 ± 0.022
AAGGGGAAAA | 0.983 ± 0.02
AAGGGGAAGG | 0.996 ± 0.012
AAGGGGAATA | 1.01 ± 0.035
AAGGGGAGGA | 0.989 ± 0.016
AAGGGGAGGC | 0.971 ± 0.041
AAGGGGATAT | 1.03 ± 0.044
AAGGGGATTG | 0.986 ± 0.042

Sequence | switch fluorescence ratio
AAGGGGCAGC | 0.9903 ± 0.0069
AAGGGGCCCC | 1.31 ± 0.49
AAGGGGCCGG | 1.0099 ± 8.3e-05
AAGGGGCGCA | 0.969 ± 0.045
AAGGGGGATC | 1 ± 0.032
AAGGGGGCCC | 0.99 ± 0.021
AAGGGGGCGA | 0.982 ± 0.019
AAGGGGGGAT | 0.974 ± 0.02
AAGGGGGGCC | 1.01 ± 0.089
AAGGGGGGTT | 1.01 ± 0.036
AAGGGGGTAC | 1.38 ± 0.77
AAGGGGGTAG | 1.01 ± 0.032
AAGGGGGTTG | 0.975 ± 0.044
AAGGGGTAAT | 0.967 ± 0.045
AAGGGGTCCA | 0.991 ± 0.029
AAGGGGTCTA | 1.002 ± 0.0085
AAGGGGTGGT | 0.989 ± 0.032
AAGGGGTGTA | 0.985 ± 0.04
AAGGGTATCC | 1.02 ± 0.013
